The target in experiment [1] is T1, SARS-COV2 Spike RBD, Delta (SARS-CoV-2, UniProt P0DTC2 319-541).
T1 construct: domain: RBD
In words: SPR; 'N/A indicates a lack of binding'. (In general: Surface plasmon resonance follows binding to a sensor surface in real time, without labels.)

Experiment [2] concerns the target T2, SARS-COV2 Spike RBD, Beta (SARS-CoV-2, UniProt P0DTC2 319-541).
T2 construct: domain: RBD
In words: SPR; 'N/A indicates a lack of binding'.

B1: AI-Designed Binder (de novo casirivimab HCDR3 variant) (Fab, V domains shown)
VH: QVQLVESGGGLVKPGGSLRLSCAASGFTFSDYYMSWIRQAPGKGLEWVSYITYSGSTIYYADSVKGRFTISRDNAKSSLYLQMNSLRAEDTAVYYCARDWGQTWDSYFDYWGQGTLVTVSS
VL: DIQMTQSPSSLSASVGDRVTITCQASQDITNYLNWYQQKPGKAPKLLIYAASNLETGVPSRFSGSGSGTDFTFTISGLQPEDIATYYCQQYDNLPLTFGGGTKVEIKR
notes: Fab format
As for B1, the binding result in experiment [1] and in experiment [2] was “no binding” throughout.

Values taken from patent US20250218531A1 (ABSCI, published 2025).
